Results as given in US20240167005A1, “MODIFIED SHIGELLA APYRASE AND USES THEREOF” (APIRAYS BIOSCIENCES AB, priority 2021, published 2024).

Columns and labels:
[1] = tested on: O=[N+]([O-])c1ccc(OP(=O)(O)O)cc1; test: Affinity towards pNPP, L66V; format: biochemical, Shigella flexneri; conditions: other: L66V, 50 mM Tris-HCl pH 7.5, 37° C., 20 min, 500 ng enzyme
Description: However, not all reactions successfully generated PCR products by agarose gel electrophoresis. The successful mutations were transformed into the expression host and proteins were expressed and purified to homogeneity by affinity chromatography.
Other substrates like 2-Glycerophosphate, Pyridoxal phosphate and phenyl phosphate were not hydrolysed by the mutants (Table 2 and FIG. 8A-B).
(§1) The formation of product. Para-nitro phenol was monitored colorimetrically at 405 nm using multi-mode spectrophotometer (Biotek instruments).
(§2) Respective colorimetric/fluorescence assays (mentioned above).

[2] = tested on: Cc1ncc(C[n+]2csc(CCO[P@](=O)(O)OP(=O)(O)O)c2C)c(N)n1; test: purified protein, by the assay type; conditions: other: L66V, TPP, 50 mM Tris-HCl pH 7.5, 37° C., 20 min, 500 ng enzyme
Description: The kinetic curves were plotted and the Michaelis Menten constant (Km) was calculated using GraphPad Prism 5.0 software.

[3] = tested on: O=[N+]([O-])c1ccc(OP(=O)(O)O)cc1; test: pNPP dephosphorylation (Example 3), mutant; format: biochemical, Shigella flexneri; conditions: other: mutant of Example 1, 50 mM Tris, pH 7.5, 37° C., 15 min, 2 μg enzyme
Description: In order to improve the activity of apyrase and its tolerance to high salt conditions, the inventors mutated the apyrase gene randomly using an error prone PCR method starting from the wild-type Shigella flexneri apyrase DNA sequence (SEQ ID NO: 4) as template. The method incorporates repeated copying of the template at high MgCl2 concentration (5 mM) with Taq polymerase. After every fourth cycle, one fifth of the reaction mixture was transferred to fresh PCR tube and the same process was repeated 22 times to obtain a product that will have randomly mutated nucleotides which can be identified by sequencing. The mutated gene was cloned in pET21a vector. The mutated DNA sequence obtained is presented as SEQ ID NO: 2, containing a total of 31 mutations leading to amino-acid changes (see SEQ ID NO:3 compared to the wild-type amino-acid sequence of SEQ ID NO: 1).
(§3) Products: para Nitro phenol (PNP, yellow colour, absorbance at 405 nm) and phosphate • pNPP+Apyrase→PNP+Pi
To further study the capability of the mutant enzyme to hydrolyse pNPP, the substrate (pNPP) was titrated and incubated with the mutant apyrase. […]
The enzymes (2 μg) were incubated with different concentrations of pNPP (dissolved in 50 mM Tris, pH 7.5) in a 100 μL reaction mixture. […] These were incubated at 37° C. for 15 minutes and absorbance was taken at 405 nm.

[4] = target: T1, wild-type Shigella flexneri apyrase, SEQ ID NO: 1 (Shigella flexneri, UniProt Q59909); test: pNPP dephosphorylation (Example 3), wild type; format: biochemical; conditions: 50 mM Tris, pH 7.5, 37° C., 15 min, 2 μg enzyme
T1 sequence (Q59909 26-246): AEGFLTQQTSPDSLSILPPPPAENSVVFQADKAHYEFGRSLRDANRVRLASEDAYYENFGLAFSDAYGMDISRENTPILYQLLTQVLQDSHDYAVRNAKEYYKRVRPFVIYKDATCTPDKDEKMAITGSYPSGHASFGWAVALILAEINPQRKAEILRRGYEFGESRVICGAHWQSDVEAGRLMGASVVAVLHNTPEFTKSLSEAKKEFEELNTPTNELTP
Description: as §3
(§4) To further study the capability of the mutant enzyme to hydrolyse pNPP, the substrate (pNPP) was titrated and incubated with the mutant apyrase. As controls, alkaline phosphatase (known to hydrolyse pNPP) and the wildtype enzyme were also included.
(§5) The enzymes (2 μg) were incubated with different concentrations of pNPP (dissolved in 50 mM Tris, pH 7.5) in a 100 μL reaction mixture. For alkaline phosphatase, pNPP was dissolved in carbonate buffer (pH 10.3). Control reaction with pNPP lacking WT, mutant apyrase and alkaline phosphatase was also included. These were incubated at 37° C. for 15 minutes and absorbance was taken at 405 nm.

alkaline phosphatase = test: pNPP dephosphorylation (Example 3), alkaline phosphatase; format: biochemical; conditions: carbonate buffer pH 10.3, 37° C., 15 min, 2 μg enzyme
Description: as §3, §4, §5

[5] = tested on: EIEC apyrase variant H116L; test: Affinity of pNPP to EIEC H116L (Table 6); format: biochemical
Description: as §1, §2

[6] = tested on: O=[N+]([O-])c1ccc(OP(=O)(O)O)cc1; test: Affinity of pNPP to EIEC apyrase (Table 6); format: biochemical; conditions: other: EIEC apyrase, pH 7.5, 37.0 °C
Description: as §1, §2

[7] = tested on: Nc1ncnc2c1ncn2[C@@H]1O[C@H](COP(=O)(O)OP(=O)(O)OP(=O)(O)O)[C@@H](O)[C@H]1O; test: Affinity of ATP to EIEC apyrase (Table 6); format: biochemical; conditions: other: EIEC apyrase, pH 7.5, 37.0 °C
Description: as §2

[8] = pNPP dephosphorylation assay (Example 3); format: biochemical; conditions: 2 μg enzyme, 3 mM pNPP, 50 mM Tris pH 7.5, 37° C., 15 minutes, FIG. 5
Description: Wild-type and mutant apyrase from Example 1 (2 μg each) were incubated with 3 mM pNPP (pNPP was dissolved in 50 mM Tris pH 7.5) in a 100 μL reaction mixture. Control reaction with pNPP lacking WT and mutant apyrase was also included. These were incubated at 37° C. for 15 minutes and absorbance was taken at 405 nm.
as §4, §5

[9] = Whole cell ATP degradation activity assay (periplasmic samples, AMFAS); format: biochemical; conditions: induced cells, lysozyme/EDTA, 37° C., 30 minutes
Description: As a crude assay for confirming expression of active enzyme, a whole cell ATP degradation activity assay was performed. 100 mM ATP was prepared in 50 mM Tris, pH 7.5. After dissolution, the pH was adjusted to 7.5 using NaOH. Pellets from 1 mL culture of induced cells were taken and washed twice with saline containing 1 mM Calcium chloride. The cells were treated with Lysozyme and EDTA to lyse the cell wall to release the periplasmic contents.
150 μL of 40 mM EDTA and 150 μL of 10 mM ATP was added to the pellet and mixed well, followed by incubation at 37° C. for 30 minutes.

[10] = ATP hydrolysis using purified recombinant apyrase (AMFAS, Example 2); format: biochemical
Description: A titrated series of ATP solutions from 100 mM to 0.01 mM in 50 mM Tris, pH 7.5 were prepared and incubated with 700 ng of Apyrase (mutant prepared in Example 1 and wild-type Shigella flexneri apyrase as control) for 30 minutes at 37° C. (100 μL reaction). After the incubation, 100 μL AMFAS reagent was added and OD was taken at 630 nm using multimode reader (Biotek instruments). The color formation is proportional to the amount of ATP degraded (dephosphorylated to ADP or AMP). […] Specific activity at 10 mM ATP was determined as 6.3 μmoles/min/mg for the mutant apyrase.

[11] = Bhargava et al. Current Science 1995; cited from earlier work
[12] = TPP assay / affinity (Examples 4-5); format: biochemical; conditions: 5.0 mM TPP, 20 minutes, 37° C.; FIG. 8B, 9C
Description: A stock of freshly prepared TPP (50 mM) was prepared before performing every assay. […] Hydrolysis of Thiamine pyrophosphate (TPP) releases Thiamine, which forms a thiochrome fluorophore on addition of hydrogen peroxide and horse radish peroxidase (HRP) in alkaline conditions (NaOH-HRP-H2O2-1M NaOH, 5 U/mL HRP, 50 mM H2O2 mixed in a volumetric ratio of 3:1:1). Fluorescence was measured using multi-mode spectrophotometer (Biotek instruments) with excitation at 368 nm and emission at 450 nm.
as §2

[13] = pNPP assay / affinity (Examples 4-5); format: biochemical; conditions: 2.0 mM pNPP, 20 minutes, 37° C.; FIG. 8A, 9B
Description: as §1, §2

Question: For “Shigella flexneri apyrase (ApiOne, SEQ ID NO: 1) ApiTwo mutant L66V (Shigella flexneri; L66V)”, which Km [1] is on record?
Answer: Its Km is 0.76 mM.

Question: What about the Km [2] of the same molecule?
Answer: Its Km is 5.6 mM.

Question: With “Shigella flexneri apyrase, mutant apyrase of Example 1, SEQ ID NO: 3 (S50N, F54V, G63R, L66V, N70Q, E77V, A791, D90T, S97T, L108M, Q113N, V120R, K124R, Y127Q, P143R, 1151L, F162N, A167G, N174Q, K177R, L182F, G184A, W199Y, G206R, V213A, N219K, F223W, L227S, F234Y, T239Q, E243D) (Shigella flexneri; A167G/A79I/D90T/E243D/E77V/F162N/F223W/F234Y/F53V/G185A/G206R/G63R/I151L/K124R/K178R/L108M/L182F/L227S/L66V/N174Q/N219K/N70Q/P143R/Q113N/S50N/S97T/T239Q/V120R/V213A/W199Y/Y127Q)” as the molecule, how does the Km [3] read?
Answer: Its Km is 2.1 mM.

Question: With `O=[N+]([O-])c1ccc(OP(=O)(O)O)cc1` [pNPP, para-Nitrophenylphosphate] as the molecule, how does the “Km for pNPP” value [4] read?
Answer: Its value is “Too low affinity”.

Question: And the Km (alkaline phosphatase)?
Answer: The Km was 8.4 mM.

Question: What about the Km [5] of the same molecule?
Answer: Its Km is 3.5 mM.

Question: For EIEC apyrase (Escherichia coli), which Km [6] is on record?
Answer: The Km was 25.0 mM.

Question: And the Km [7]?
Answer: The Km was 0.021 mM.

B1: Mutant apyrase (protein)
chain: MKTKNFLLFCIATNMIFIPSANALKAEGFLTQQTSPDSLSILPPPPAENNVVVQADKAHYEFRRSVRDAQRVRLASVDIYYENFGLAFSTAYGMDITRENTPILYQLMTQVLNDSHDYARRNAREYQKRVRPFVIYKDATCTRDKDEKMALTGSYPSGHASNGWAVGLILAEIQPQRRAEIFRRAYEFGESRVICGAHYQSDVEARRLMGASAVAVLHKTPEWTKSSSEAKKEYEELNQPTNDLTPLEHHHHHH
modifications: Synthetic construct mutated variant
Question: Which pNPP hydrolysis ([8]; listed as mutant) does the source give for B1 here?
Answer: The pNPP hydrolysis was “has acquired the ability to hydrolyse pNPP”.

Question: What about the pNPP hydrolysis ([8]; listed as mutant apyrase) of the same molecule?
Answer: The pNPP hydrolysis was “considerable activity”.

Question: And the “ATP hydrolysis by periplasmic fraction” value [9]?
Answer: Its value is “can hydrolyse ATP similar to the WT apyrase”.

Question: And the “ATP degradation activity compared with wild-type” value ([10]; ATP 100 mM to 0.01 mM, 37° C., FIG. 4)?
Answer: Its value is “indistinguishable from the wild-type enzyme”.

Question: And the Specific activity ([10]; at 10 mM ATP)?
Answer: The Specific activity was 6.3 µmol/min/mg.

B2: ApiOne: wild-type Shigella flexneri apyrase, SEQ ID NO: 1, termed ApiOne (protein, listed as Shigella flexneri)
chain: MKTKNFLLFCIATNMIFIPSANALKAEGFLTQQTSPDSLSILPPPPAENSVVFQADKAHYEFGRSLRDANRVRLASEDAYYENFGLAFSDAYGMDISRENTPILYQLLTQVLQDSHDYAVRNAKEYYKRVRPFVIYKDATCTPDKDEKMAITGSYPSGHASFGWAVALILAEINPQRKAEILRRGYEFGESRVICGAHWQSDVEAGRLMGASVVAVLHNTPEFTKSLSEAKKEFEELNTPTNELTP
Question: With B2 as the molecule, how does the pNPP hydrolysis [8] read?
Answer: Its pNPP hydrolysis is “not active”.

Question: What about the pNPP hydrolysis ([8]; listed as wildtype enzyme) of the same molecule?
Answer: The pNPP hydrolysis was “lacks such activity”.

Question: What about the “Hydrolysis of pNPP” value [11] of the same molecule?
Answer: Its value is “does not hydrolyse”.

Question: What about the “Hydrolysis of TPP (in words)” value [12] of the same molecule?
Answer: The value was “no detectable activity”.

B3: F53V: Shigella flexneri apyrase (SEQ ID NO: 1) with single substitution F53V (protein, listed as Shigella flexneri)
chain: MKTKNFLLFCIATNMIFIPSANALKAEGFLTQQTSPDSLSILPPPPAENSVVVQADKAHYEFGRSLRDANRVRLASEDAYYENFGLAFSDAYGMDISRENTPILYQLLTQVLQDSHDYAVRNAKEYYKRVRPFVIYKDATCTPDKDEKMAITGSYPSGHASFGWAVALILAEINPQRKAEILRRGYEFGESRVICGAHWQSDVEAGRLMGASVVAVLHNTPEFTKSLSEAKKEFEELNTPTNELTP
Question: For B3, which “Hydrolysis of pNPP (in words)” value [13] is on record?
Answer: The value was “could hydrolyse”.

Question: And the “Hydrolysis of TPP (in words)” value [12]?
Answer: The value was “could hydrolyse”.

B4: L66V (protein, listed as Shigella flexneri)
chain: MKTKNFLLFCIATNMIFIPSANALKAEGFLTQQTSPDSLSILPPPPAENSVVFQADKAHYEFGRSVRDANRVRLASEDAYYENFGLAFSDAYGMDISRENTPILYQLLTQVLQDSHDYAVRNAKEYYKRVRPFVIYKDATCTPDKDEKMAITGSYPSGHASFGWAVALILAEINPQRKAEILRRGYEFGESRVICGAHWQSDVEAGRLMGASVVAVLHNTPEFTKSLSEAKKEFEELNTPTNELTP
Question: With B4 as the molecule, how does the “Hydrolysis of pNPP (in words)” value [13] read?
Answer: Its value is “could hydrolyse”.

Question: And the “Hydrolysis of TPP (in words)” value [12]?
Answer: The value was “could hydrolyse”.

B5: E77V: Shigella flexneri apyrase (SEQ ID NO: 1) with single substitution E77V (protein, listed as Shigella flexneri)
chain: MKTKNFLLFCIATNMIFIPSANALKAEGFLTQQTSPDSLSILPPPPAENSVVFQADKAHYEFGRSLRDANRVRLASVDAYYENFGLAFSDAYGMDISRENTPILYQLLTQVLQDSHDYAVRNAKEYYKRVRPFVIYKDATCTPDKDEKMAITGSYPSGHASFGWAVALILAEINPQRKAEILRRGYEFGESRVICGAHWQSDVEAGRLMGASVVAVLHNTPEFTKSLSEAKKEFEELNTPTNELTP
Question: For B5, which “Hydrolysis of pNPP (in words)” value [13] is on record?
Answer: Its value is “could hydrolyse”.

Question: What about the “Hydrolysis of TPP (in words)” value [12] of the same molecule?
Answer: Its value is “could hydrolyse”.
